Source: patent US20180171029A1 (REGENTS OF THE UNIVERSITY OF MINNESOTA, published 2018)

Key:
[1] = target: T1, HA-tagged human APOBEC3A (A3A-HA) (human, UniProt P31941 1-199); assay: immunoblot of 293T lysates with A3-HA proteins (FIG. 3), hybridoma supernatant
T1 construct: Expressed by transient transfection in 293T cells; lysate resolved by SDS-PAGE (denatured) for the immunoblot; not shown: HA tag
From the text: (§1) Cell lysates from 293T cells transiently transfected with each HA-tagged APOBEC3 protein (A3A-HA, A3B-HA, A3C-HA, A3D-HA, A3F-HA, A3G-HA, A3H-HA) or the expression vector alone were resolved by 12% SDS-PAGE and transferred to PVDF membrane. […] Membranes were further probed with the appropriate secondary antibodies including anti-rabbit IgG IR800CW (Odyssey 926-32211, LI-COR Biosciences, Lincoln, Nebr.) 1/20,000 or anti-mouse IgG IR800CW (Odyssey 827-08364, LI-COR Biosciences, Lincoln, Nebr.) 1/20,000 in 50% Blok (WBAVDP001, Millipore, Darmstadt, Germany) in PBS-T, (PBS, 0.1% Tween-20) and images were generated using LI-COR imaging (LI-COR Biosciences, Lincoln, Nebr.).

[2] = target: T2, HA-tagged human APOBEC3B (A3B-HA) (human, UniProt Q9UH17 1-382); assay: hybridoma screening (ELISA-positive clones, then immunoblot of A3-HA lysates and immunofluorescence)
T2 construct: Expressed by transient transfection in 293T cells; lysate resolved by SDS-PAGE (denatured) for the immunoblot; not shown: HA tag
T2 sequence (Q9UH17 whole entry): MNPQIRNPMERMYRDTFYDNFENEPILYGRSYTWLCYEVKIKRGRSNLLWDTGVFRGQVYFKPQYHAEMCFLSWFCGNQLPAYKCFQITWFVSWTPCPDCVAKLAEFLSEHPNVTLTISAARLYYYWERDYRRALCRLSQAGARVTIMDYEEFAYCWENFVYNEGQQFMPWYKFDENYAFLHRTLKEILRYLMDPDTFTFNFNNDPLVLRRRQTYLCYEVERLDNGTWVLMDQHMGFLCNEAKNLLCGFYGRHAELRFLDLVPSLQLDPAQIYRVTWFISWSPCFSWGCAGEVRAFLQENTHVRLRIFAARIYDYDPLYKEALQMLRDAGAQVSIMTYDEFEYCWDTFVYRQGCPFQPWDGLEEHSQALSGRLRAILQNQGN

[3] = target: T2, HA-tagged human APOBEC3B (A3B-HA); assay: immunoblot of 293T lysates with A3-HA proteins (FIG. 3), hybridoma supernatant
From the text: as §1

[4] = target: T3, endogenous human APOBEC3B (A3B) of cancer cell lines (human, UniProt Q9UH17 1-382); assay: intracellular flow cytometry, OVCAR5 and MDA-MB-468 cells with control or A3B shRNA
T3 construct: whole, on cells; Untagged endogenous, intracellular protein: detected in fixed and permeabilised cells (immunofluorescence, flow cytometry) and in cell lysates (immunoblot); also called endogenous A3B
T3 sequence (Q9UH17 whole entry): as above
Procedure: OVCAR5 (Monks et al., 1991, J. Natl. Cancer Inst. 83:757-766) and MDA-MB-468 (ATCC HTB-132, ATCC, Manassas, Va.) cells were transduced with lentiviruses encoding either a control or A3B-specific shRNA. Following drug selection (puromycin), cells were fixed in 1% paraformaldehyde and permeabilized in cold methanol. […] After a single PBS wash to remove unbound antibody, cells were analyzed on a flow cytometer.

T1 sequence (P31941 whole entry): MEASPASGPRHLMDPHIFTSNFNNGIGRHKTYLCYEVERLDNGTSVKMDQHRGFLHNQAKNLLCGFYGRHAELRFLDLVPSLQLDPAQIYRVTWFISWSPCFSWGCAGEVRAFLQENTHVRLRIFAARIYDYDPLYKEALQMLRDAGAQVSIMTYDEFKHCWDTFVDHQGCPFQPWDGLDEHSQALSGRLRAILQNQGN

binding result [1]	binding result [2]	binding result [3]	binding result [4]	Binder
binds	binds			monoclonal antibody produced by hybridoma cell line 5210-08-15 (antibody, V domains shown, Rabbit monoclonal antibody, tested as hybridoma culture supernatant; The Ig chain entries come from cDNA and may include a leader peptide; no cleavage site stated) VH: QEQLEESGGGLVKPGGTLTLTCKASGFSFSDGYWMCWIRQAPGKGLEWIGCIYDASGGAYFPSWAKGRFTISKTSSTTVTLEMTSLTDADTAIYFCVKTDYGSSKLWGPGTLVTVSS VL: AVVLTQTASPVSAPVGGTVTINCQASQNIYSNLAWYQQKPGQPPKLLIYGASTLASGVSSRFKGSRSGTEFTLTISDLECADAATYYCQSYVYSSSTADTFGGGTKVVVEV
binds		binds	binds	monoclonal antibody produced by hybridoma cell line 5210-87-13 (antibody, V domains shown, Rabbit monoclonal antibody; hybridoma supernatant in the screens, mAb preparation in the work on endogenous A3B; The Ig chain entries come from cDNA and may include a leader peptide; no cleavage site stated) VH: QSVKESEGGLFKPTDTLTLTCTVSGFSLSSYRMHWVRQAPGNGLEWIGSISSGGNAAYARWANTRSTITRNTNLNTVTLKMTSLTAADTATYFCGSNVIWGPGTLVTVSS VL: DPVLTQTPSSVSAAVGGTVTISCQSSESVFKKNWLAWYHQKPGQSPKRLIYGASTLESGAPSRFRGSGSGTQFTLTISDLECGDAATYYCAGAFDGNIYPFGGGTEVVVKG
